{
  "source": "paper PMC5233613",
  "about": "“Structural insights into the recognition of phosphorylated FUNDC1 by LC3B in mitophagy” (Protein & Cell, 2016)",
  "test_in_all_cases": "ITC; MicroCal iTC200, 25 °C; proteins 0.25 mmol/L and peptides 3 mmol/L, dialyzed against buffer B (20 mmol/L Tris-HCl, 200 mmol/L NaCl, 1 mmol/L EDTA, pH 8.0); single binding site model",
  "settings_in_all_cases": "both partners purified",
  "key": {"[1]": {"target": "microtubule-associated protein light chain 3 beta (LC3B), wild type, full-length 1-125 (human, UniProt Q9GZQ8 1-120)"}, "[2]": {"target": "LC3B K49A (human, UniProt Q9GZQ8 1-120, K49A)"}, "[3]": {"target": "LC3B K49E (human, UniProt Q9GZQ8 1-120, K49E)"}, "[4]": {"target": "LC3B K49R (human, UniProt Q9GZQ8 1-120, K49R)"}, "[5]": {"target": "LC3B R70A (human, UniProt Q9GZQ8 1-120, R70A)"}, "[6]": {"target": "LC3B R70E (human, UniProt Q9GZQ8 1-120, R70E)"}, "[7]": {"target": "LC3B D19A (human, UniProt Q9GZQ8 1-120, D19A)"}, "[8]": {"target": "LC3B I23A (human, UniProt Q9GZQ8 1-120, I23A)"}, "[9]": {"target": "LC3B K51A (human, UniProt Q9GZQ8 1-120, K51A)"}, "[10]": {"target": "LC3B L53A (human, UniProt Q9GZQ8 1-120, L53A)"}, "[11]": {"target": "LC3B L47A (human, UniProt Q9GZQ8 1-120, L47A)"}, "[12]": {"target": "LC3B D48A (human, UniProt Q9GZQ8 1-120, D48A)"}, "[13]": {"target": "LC3B T50A (human, UniProt Q9GZQ8 1-120, T50A)"}, "[14]": {"target": "LC3B R10A (human, UniProt Q9GZQ8 1-120, R10A)"}, "[15]": {"target": "LC3B R11A (human, UniProt Q9GZQ8 1-120, R11A)"}, "[16]": {"target": "LC3B F7A (human, UniProt Q9GZQ8 1-120, F7A)"}, "[17]": {"target": "LC3B V46A (human, UniProt Q9GZQ8 1-120, V46A)"}, "[18]": {"target": "LC3B R10E (human, UniProt Q9GZQ8 1-120, R10E)"}, "[19]": {"target": "LC3B R11E (human, UniProt Q9GZQ8 1-120, R11E)"}},
  "note": "Non-standard residues stand in square brackets, D forms with d. No end group written: not given here. pY = N[C@@H](Cc1ccc(OP(=O)(O)O)cc1)C(=O)O; pS = N[C@@H](COP(=O)(O)O)C(=O)O",
  "data": [
    {"binder": "DYESDDD[pS]YEVLDLTE (also called FUNDC1 pS17; FUNDC1 pS17 peptide; source: synthetic peptide (GL Biochem, Shanghai))", "note": "[FUNDC1 LIR peptide 10-25 phosphorylated at Ser17]", "values": [
      {"measurement": "Kd", "setting": "[1]", "result": "0.59 ± 0.06", "unit": "µM"},
      {"measurement": "dH", "setting": "[1]", "result": -3.51, "unit": "kcal/mol"},
      {"measurement": "stoichiometry N", "setting": "[1]", "result": 1},
      {"measurement": "Kd", "setting": "[2]", "result": "3.56 ± 0.21", "unit": "µM"},
      {"measurement": "dH", "setting": "[2]", "result": -4.9, "unit": "kcal/mol"},
      {"measurement": "stoichiometry N", "setting": "[2]", "result": 1.08},
      {"measurement": "Kd", "setting": "[3]", "result": "120 ± 5.72", "unit": "µM"},
      {"measurement": "dH", "setting": "[3]", "result": -4.49, "unit": "kcal/mol"},
      {"measurement": "stoichiometry N", "setting": "[3]", "result": 0.93},
      {"measurement": "Kd", "setting": "[4]", "result": "0.33 ± 0.07", "unit": "µM"},
      {"measurement": "dH", "setting": "[4]", "result": -5.78, "unit": "kcal/mol"},
      {"measurement": "stoichiometry N", "setting": "[4]", "result": 1.17},
      {"measurement": "Kd", "setting": "[5]", "result": "15.8 ± 1.5", "unit": "µM"},
      {"measurement": "dH", "setting": "[5]", "result": -1.8, "unit": "kcal/mol"},
      {"measurement": "stoichiometry N", "setting": "[5]", "result": 1.04},
      {"measurement": "Kd", "setting": "[6]", "result": "61 ± 3.44", "unit": "µM"},
      {"measurement": "dH", "setting": "[6]", "result": -2.54, "unit": "kcal/mol"},
      {"measurement": "stoichiometry N", "setting": "[6]", "result": 1.03},
      {"measurement": "Kd", "setting": "[7]", "result": "2.39 ± 0.3", "unit": "µM"},
      {"measurement": "dH", "setting": "[7]", "result": -2.78, "unit": "kcal/mol"},
      {"measurement": "stoichiometry N", "setting": "[7]", "result": 1.16},
      {"measurement": "Kd", "setting": "[8]", "result": "4.85 ± 0.25", "unit": "µM"},
      {"measurement": "dH", "setting": "[8]", "result": -1.53, "unit": "kcal/mol"},
      {"measurement": "stoichiometry N", "setting": "[8]", "result": 1.04},
      {"measurement": "Kd", "setting": "[9]", "result": "5.92 ± 0.75", "unit": "µM"},
      {"measurement": "dH", "setting": "[9]", "result": -2.66, "unit": "kcal/mol"},
      {"measurement": "stoichiometry N", "setting": "[9]", "result": 1.03},
      {"measurement": "Kd", "setting": "[10]", "result": "0.97 ± 0.14", "unit": "µM"},
      {"measurement": "dH", "setting": "[10]", "result": -2.61, "unit": "kcal/mol"},
      {"measurement": "stoichiometry N", "setting": "[10]", "result": 1.03}
    ]},
    {"binder": "DYESDDDSYEVLDLTE (FUNDC1 (Fun14 domain-containing protein 1), LIR and flanking residues 10-25; also called unphosphorylated FUNDC1 peptide; FUNDC1 peptide; source: synthetic peptide (GL Biochem, Shanghai))", "note": "[FUNDC1 LIR peptide 10-25, unphosphorylated]", "values": [
      {"measurement": "Kd", "setting": "[1]", "result": "1.78 ± 0.16", "unit": "µM"},
      {"measurement": "dH", "setting": "[1]", "result": -3.15, "unit": "kcal/mol"},
      {"measurement": "stoichiometry N", "setting": "[1]", "result": 1.02},
      {"measurement": "Kd", "setting": "[11]", "result": "3.07 ± 0.64", "unit": "µM"},
      {"measurement": "dH", "setting": "[11]", "result": -2.06, "unit": "kcal/mol"},
      {"measurement": "stoichiometry N", "setting": "[11]", "result": 1.19},
      {"measurement": "Kd", "setting": "[12]", "result": "1.17 ± 0.15", "unit": "µM"},
      {"measurement": "dH", "setting": "[12]", "result": -3.03, "unit": "kcal/mol"},
      {"measurement": "stoichiometry N", "setting": "[12]", "result": 0.98},
      {"measurement": "Kd", "setting": "[13]", "result": "2.81 ± 0.31", "unit": "µM"},
      {"measurement": "dH", "setting": "[13]", "result": -2.65, "unit": "kcal/mol"},
      {"measurement": "stoichiometry N", "setting": "[13]", "result": 1.02},
      {"measurement": "Kd", "setting": "[14]", "result": "11.4 ± 1.14", "unit": "µM"},
      {"measurement": "dH", "setting": "[14]", "result": -3.56, "unit": "kcal/mol"},
      {"measurement": "stoichiometry N", "setting": "[14]", "result": 1.01},
      {"measurement": "Kd", "setting": "[15]", "result": "5.62 ± 0.25", "unit": "µM"},
      {"measurement": "dH", "setting": "[15]", "result": -4.51, "unit": "kcal/mol"},
      {"measurement": "stoichiometry N", "setting": "[15]", "result": 1.12},
      {"measurement": "Kd", "setting": "[16]", "result": "3.52 ± 0.23", "unit": "µM"},
      {"measurement": "dH", "setting": "[16]", "result": -3.08, "unit": "kcal/mol"},
      {"measurement": "stoichiometry N", "setting": "[16]", "result": 1.17},
      {"measurement": "Kd", "setting": "[17]", "result": "1.59 ± 0.19", "unit": "µM"},
      {"measurement": "dH", "setting": "[17]", "result": -4.86, "unit": "kcal/mol"},
      {"measurement": "stoichiometry N", "setting": "[17]", "result": 1.02}
    ]},
    {"binder": "DYESDDDS[pY]EVLDLTE (also called FUNDC1 pY18; pY18 peptide; source: synthetic peptide (GL Biochem, Shanghai))", "note": "[FUNDC1 LIR peptide 10-25 phosphorylated at Tyr18]", "values": [
      {"measurement": "Kd", "setting": "[1]", "result": "16.8 ± 2.1", "unit": "µM"},
      {"measurement": "dH", "setting": "[1]", "result": -0.93, "unit": "kcal/mol"},
      {"measurement": "stoichiometry N", "setting": "[1]", "result": 1.16}
    ]},
    {"binder": "DYE[pS]DDDSYEVLDLTE (also called FUNDC1 pS13; pS13 peptide; source: synthetic peptide (GL Biochem, Shanghai))", "note": "[FUNDC1 LIR peptide 10-25 phosphorylated at Ser13]", "values": [
      {"measurement": "Kd", "setting": "[1]", "result": "4.63 ± 0.13", "unit": "µM"},
      {"measurement": "dH", "setting": "[1]", "result": -3.81, "unit": "kcal/mol"},
      {"measurement": "stoichiometry N", "setting": "[1]", "result": 1.13},
      {"measurement": "Kd", "setting": "[18]", "result": "34 ± 3.46", "unit": "µM"},
      {"measurement": "dH", "setting": "[18]", "result": -2.83, "unit": "kcal/mol"},
      {"measurement": "stoichiometry N", "setting": "[18]", "result": 1.03},
      {"measurement": "Kd", "setting": "[19]", "result": "17.1 ± 1.05", "unit": "µM"},
      {"measurement": "dH", "setting": "[19]", "result": -2.39, "unit": "kcal/mol"},
      {"measurement": "stoichiometry N", "setting": "[19]", "result": 1.04},
      {"measurement": "Kd", "setting": "[14]", "result": "28.5 ± 2.97", "unit": "µM"},
      {"measurement": "dH", "setting": "[14]", "result": -3.67, "unit": "kcal/mol"},
      {"measurement": "stoichiometry N", "setting": "[14]", "result": 1.02},
      {"measurement": "Kd", "setting": "[15]", "result": "11.2 ± 0.73", "unit": "µM"},
      {"measurement": "dH", "setting": "[15]", "result": -4.1, "unit": "kcal/mol"},
      {"measurement": "stoichiometry N", "setting": "[15]", "result": 1.11}
    ]}
  ]
}
